This note sets out measurements from patent publication US20240150440A1 (LUMEN BIOSCIENCE, published 2024).

Read-outs that look alike come from different tables or passages of the source.

For assay [1], the target named is SARS-COV-2 Wuhan Reference RBD (SARS-CoV-2, UniProt P0DTC2 319-541). Description: ELISA, RBD coated.
Assay [2] has as its target T1, recombinant SARS-CoV-2 RBD with C-terminal AviTag (SARS-CoV-2, UniProt P0DTC2 319-541). Description: BLI, biotinylated RBD on streptavidin biosensors [Cont. 8].
The target in assay [3] is T1, recombinant SARS-CoV-2 RBD with …. Nature of the assay: ELISA, competition with coated ACE2-Fc for RBD [Cont. 8]. (ELISA stands for enzyme-linked immunosorbent assay.)
For assay [4] the target is unchanged.
Assay [5] has the same target. The source holds these as a separate data set.
For assay [6] the target is unchanged. This is another data set of the same source.
The target is the same in assay [7]. Nature of the assay: ELISA, competition with coated ACE2-Fc for RBD [Cont. 2].
For assay [8] the target is unchanged. The source holds these as a separate data set.
The target is the same in assay [9]. This is another data set of the same source.
For assay [10] the target is unchanged. Description: ELISA, competition with coated ACE2-Fc for RBD [Cont. 5].
Assay [11] shares this target. Description: BLI, biotinylated RBD on streptavidin biosensors. On the technique in general: BLI is a label-free optical method that tracks binding on a fibre tip over time.
For assay [12] the target is unchanged. Description: ELISA, competition with coated ACE2-Fc for RBD.
For assay [13] the target is unchanged. The source holds these as a separate data set.
For assay [14] the target is unchanged. The source holds these as a separate data set.
Assay [15] shares this target. Nature of the assay: ELISA, competition with coated ACE2-Fc for RBD [Cont. 3].
Assay [16] shares this target. This is another data set of the same source.
For assay [17] the target is unchanged. Description: ELISA, competition with coated ACE2-Fc for RBD [Cont. 4].

In general, EC50 refers to the concentration giving half of the maximal effect. A higher EC50 goes with lower potency in that assay. Broadly, the Kd is the concentration at which binding is half-saturated. The term IC50 denotes the point on the concentration scale where inhibition reaches its midpoint. The koff is the first-order rate constant of dissociation. In general, kon refers to the rate constant with which the complex forms.

B1: PP934 MBP-5HVZ-S3a-H2-H6 (VHH)
VHH: QVQLVESGGGLVQPGGSLRLSCAASGAAFSKNALHWFRQAPGKGREWVASITSGSGTQYMDSVKGRFTISRDNAKNTVYLQMNSLKPEDTAVYYCAALAYSGGYDYWGQGTQVTVSS
notes: Form: Dimer
With B1, in assay [1], the half-maximal effective concentration (EC50) came to 1.07 nM. The Kd in assay [2] turned out to be 18.4 nM. Also, the IC50 in [3] is 2.2 nM.

B2: MBP-5HVZ-R5C-B1-H6 (VHH, not shown: large carriers; small tags and cut ends)
VHH: QVQLVESGGGLVQPGGSLRLSCAASGSGFSNNAMHWYRQAPGKQREGVAGITSGSVSFYADSVKGRFTISRDNAKNTVYLQMNSLKPEDTAVYYCAAVTGSSTGNAGQGYLTWGQGTQVTVSS
As for B2, the Kd in [4] is 10 nM. Moreover, in assay [5], the IC50 is 0.3 nM and the Kd was found to be 9.98 nM.

B3: MBP-5HVZ-R5A-E5-H6 (VHH, not shown: large carriers; small tags and cut ends)
VHH: QVQLVESGGGLVQPGGSLRLSCAASGYDFDILRMAWFRQAPGKEREMVAAITSAESVNYEDSVKGRFTISRDNAKNTVYLQMNSLKPEDTAVYYCATYDYTDDYGYASWGQGTQVTVSS
Regarding B3, in assay [4], the Kd was approximately 31 nM. In addition, in assay [6], the concentration for half-maximal inhibition (IC50) came to 17.7 nM and the Kd worked out at 31 nM.

B4: PP1149 MBP-5HVZ-PAPA-R5a-E5-H6 (VHH)
VHH: B3 VHH
notes: Form: Dimer
In the case of B4, the EC50 in [1] worked out at 2.5 nM. The IC50 in assay [7] amounted to 14.2 nM.

B5: PP1896 Cerberbody (2-R2B-D5 and 1-S3b-C8) (other, not shown: large carriers)
chain 1: QVQLVESGGGLVQPGGSLRLSCAASGYADEINMVHWYRQAPGKGREFVAAIASGGSTFYADSVKGRFTISRDNAKNTVYLQMNSLKPEDTAVYYCAAIPRPSLSYAHDYAYWGQGTQVTVSSHHHHHH
chain 2: QVQLVESGGGLVQPGGSLRLSCAASGSIENIERMHWYRQAPGKQRELVAVIDSGGTTRYADSVKGRFTISRDNAKNTVYLQMNSLKPEDTAVYYCAAVWLTNAESTQEYWGQGTQVTVSSTVILEYAHRLSQDILSDALQQWASHHHHHHHH
B5: in [8], the Kd is less than 0.001 nM, the koff is less than 1e-07 s⁻¹ and the kon stood at 248000 M⁻¹ s⁻¹.

B6: PP1897 Cerberbody (3-S3b-C8) (other, not shown: large carriers)
chain 1: QVQLVESGGGLVQPGGSLRLSCAASGSIENIERMHWYRQAPGKQRELVAVIDSGGTTRYADSVKGRFTISRDNAKNTVYLQMNSLKPEDTAVYYCAAVWLTNAESTQEYWGQGTQVTVSSHHHHHH
chain 2: B5 chain 2
Take B6: in assay [9], the Kd was determined as 0.73 nM, the koff is 0.000382 s⁻¹ and the kon amounted to 521000 M⁻¹ s⁻¹.

B7: PP1141 MBP-4B0F-PAPA-R5d-D4-H6 (VHH)
VHH: QVQLVESGGGLVQPGGSLRLSCAASGSDFTINAMHWFRQAPGKQREFVATITSTSSTAYRDSVKGRFTISRDNAKNTVYLQMNSLKPEDTAVYYCAAFAVRDADTAGWTARDYWGQGTQVTVSS
notes: Form: Heptamer
For the molecule B7, the 50% inhibitory concentration (IC50) in assay [10] came out at 74.6 nM.

B8: PP1148 MBP-5HVZ-PAPA-R5a-C5-H6 (VHH)
VHH: QVQLVESGGGLVQPGGSLRLSCAASGDIFSINALHWFRQAPGKQREEVAAITSGGSTGYADSVKGRFTISRDNAKNTVYLQMNSLKPEDTAVYYCAAQQARGGLDSDYWGQGTQVTVSS
notes: Form: Dimer
B8: the 50% effective concentration (EC50) in [1] is 0.3 nM. Moreover, the IC50 in assay [7] amounted to 1.1 nM.

B9: PP1160 MPB-scTRP-PAPA-R5a-C5-H6 (VHH)
VHH: B8 VHH
notes: Form: Trimer
In the case of B9, in assay [7], the IC50 was 2.9 nM.

B10: PP1136 MBP-4B0F-PAPA-R5a-C5-H6 (VHH)
VHH: B8 VHH
notes: Form: Heptamer
For the molecule B10, in assay [7], the IC50 was 1.8 nM.

B11: dimeric VHH (VHH-5HVZ-MBP) R2B-E6 (VHH)
VHH: QVQLVESGGGLVQPGGSLRLSCAASGGVTRGNAMAWYRQAPGKQREIVAAIDNGGSHAYGDSVKGRFTISRDNAKNTVYLQMNSLKPEDTAVYYCAVFPDHDSEQASIDRVYWGQGTQVTVSS
As to B11, in [11], the Kd came to 10.3 nM. Besides, the IC50 in assay [12] is 17.9 nM.

B12: PP931 MBP-5HVZ-R5a-F5-H6 (VHH)
VHH: QVQLVESGGGLVQPGGSLRLSCAASGYHASILAMHWVRQAPGKEREWVASMTWSDMTQYSDSVKGRFTISRDNAKNTVYLQMNSLKPEDTAVYYCAATYVTRDRPWTHWGQGTQVTVSS
notes: Form: Dimer
For B12, the response in assay [1] was half-maximal at 1.93 nM (EC50). Also, in [2], the dissociation constant Kd is 11.9 nM. The IC50 in [3] was 5.6 nM.

B13: MBP-R2B-D5-H6 (VHH)
VHH: QVQLVESGGGLVQPGGSLRLSCAASGYADEINMVHWYRQAPGKGREFVAAIASGGSTFYADSVKGRFTISRDNAKNTVYLQMNSLKPEDTAVYYCAAIPRPSLSYAHDYAYWGQGTQVTVSS
notes: monomer
Regarding B13, the dissociation constant Kd in [11] was 82 nM.

B14: R2B-D5 monomer (PP805) (VHH, not shown: large carriers; small tags and cut ends)
VHH: B13 VHH
As for B14, in assay [13], the Kd amounted to 10 nM, the koff turned out to be 0.00226 s⁻¹ and the kon came out at 226000 M⁻¹ s⁻¹.

B15: PP1898 Cerberbody (1-R2B-D5 and 2-S3b-C8) (other, not shown: large carriers; small tags and cut ends)
VHH 1: QVQLVESGGGLVQPGGSLRLSCAASGSIENIERMHWYRQAPGKQRELVAVIDSGGTTRYADSVKGRFTISRDNAKNTVYLQMNSLKPEDTAVYYCAAVWLTNAESTQEYWGQGTQVTVSS
VHH 2: B13 VHH
Turning to B15, in assay [14], the Kd was 0.4 nM, the koff came to 0.000218 s⁻¹ and the kon was 540000 M⁻¹ s⁻¹.

B16: MBP-5HVZ-R5B-G1-H6 (VHH)
VHH: QVQLVESGGGLVQPGGSLRLSCAASGSIGQIVLVHWFRQAPGKQRELVAGITSPSSTYYADSVKGRFTISRDNAKNTVYLQMNSLKPEDTAVYYCNTELEGKTQGFTGKTVWYDYWGQGTQVTVSS
Consider B16, for which the IC50 in assay [15] was 26.6 nM.

B17: PP1150 MBP-5HVZ-PAPA-R5b-G1-H6 (VHH)
VHH: B16 VHH
notes: Form: Dimer
In turn, B17 had an EC50 in assay [1] of 0.64 nM. Further, the IC50 in [15] was 5.2 nM.

B18: MBP-5HVZ-R2A-C5-H6 (VHH, not shown: large carriers; small tags and cut ends)
VHH: QVQLVESGGGLVQPGGSLRLSCAASGTWGNIQYLSWFRQAPGKRREFVAAITPNNGTNYADSVKGRFTISRDNAKNTVYLQMNSLKPEDTAVYYCTAVLWYTTKEGPYDYWGQGTQVTVSS
As to B18, in [16], the IC50 was 13.3 nM.

B19: PP1152 MBP-5HVZ-PAPA-R5d-B6-H6 (VHH)
VHH: QVQLVESGGGLVQPGGSLRLSCAASGRILAANIVHWYRQAPGKEREGVAGITSGGGSYYADSVKGRFTISRDNAKNTVYLQMNSLKPEDTAVYYCNALGLGQSSLYRSADPYDSWGQGTQVTVSS
notes: Form: Dimer
Regarding B19, the IC50 in assay [17] was determined as 4.7 nM.

B20: PP1140 MBP-4B0F-PAPA-R5d-B6-H6 (VHH)
VHH: B19 VHH
notes: Form: Heptamer
Take B20: the IC50 in assay [10] was 106 nM.

B21: PP1151 MBP-5HVZ-PAPA-R5d-B5-H6 (VHH)
VHH: QVQLVESGGGLVQPGGSLRLSCAASGSRDSIVAMHWYRQAPGKGREGVAGITSRWVTYYADSVKGRFTISRDNAKNTVYLQMNSLKPEDTAVYYCNAPVYYDTEWYDIWGQGTQVTVSS
notes: Form: Dimer
As to B21, in assay [17], the IC50 is 23.1 nM.

B22: PP927 MBP-5HVZ-R1i-C8-H6 (VHH)
VHH: QVQLVESGGGLVQPGGSLRLSCAASGRQFGAWRMHWYRQAPGKQREWVAGITSGTSGNYADSVKGRFTISRDNAKNTVYLQMNSLKPEDTAVYYCAATSHTTYHAEYWGQGTQVTVSS
notes: Form: Dimer
In assay [1], B22 yielded an EC50 of 1.43 nM. Moreover, in assay [2], the Kd was 25.2 nM. Further, in assay [3], the IC50 was determined as 111 nM.
